Patent US20250027955A1, “ETHYLENE RECEPTORS AND BINDING DOMAINS WITH MODIFIED BINDING KINETICS FOR ETHYLENE” (Trustees of Dartmouth College, priority 2022, published 2025)
Like-named read-outs stand apart in the source and are kept apart here.

How the values were obtained:
[1] = test system: dark-grown Arabidopsis seedlings; experiment: Silver sensitivity assay: effect of silver on ethylene response of dark-grown seedlings; assay type: in vivo
Excerpt: As an initial test for the feasibility of the first hypothesis, Applicant asked if ETR1^D25N could still bind a metal cofactor, and therefore potentially ethylene, in planta. For this purpose, Applicant examined the effects of silver (Ag) on ethylene sensitivity. Silver is thought to substitute for the copper cofactor and, although receptors containing silver can still bind ethylene, they no longer transmit the signal, resulting in ethylene insensitivity.

[2] = test system: Arabidopsis seedlings, etr1 etr2 ein4 background; conditions: previously reported; cited from earlier work
[3] = test system: Arabidopsis seedlings, etr1 etr2 ein4 background; experiment: Triple-response hypocotyl growth assay of dark-grown seedlings expressing ETR1 transgenes; assay type: in vivo; conditions: for rescue of growth of etr1 etr2 ein4 triple mutant in air: absence of ethylene, hypocotyl and adult shoot growth; for hypocotyl growth response to ethylene: dark-grown seedlings, 0 or 1 μL L^−1 ethylene
Protocol: Functionality of the ETR1 Asp25 mutants was tested by transgenic expression in the etr1 etr2 ein4 Arabidopsis background.
Applicant can thus exploit the triple mutant to assess the ability of the ETR1 transgenes to rescue growth in the absence of ethylene as well as their ability to mediate a response to ethylene. Such an analysis indicates whether the encoded receptors are able to assume the ‘on’ conformation that represses the ethylene response in air, as well as the ‘off’ conformation that occurs in response to ethylene binding.
(§1) All Arabidopsis lines were of the Columbia (Col-0) accession. The etr1-1 and etr1-6 etr2-3 ein4-4 mutant lines have been described. Analysis of the triple response of dark-grown Arabidopsis seedlings to ethylene was performed as described previously. Briefly, seedlings were grown at 22° C. on vertically oriented plates on half-strength Murashige and Skoog basal medium with Gamborg's vitamins (pH 5.75; Sigma), 0.8% (w/v) agar, and 5 μM aminoethoxyvinylglycine (AVG) to inhibit ethylene biosynthesis. The stratified seed was exposed to light for 8 hr and then moved to the dark in the presence or absence of ethylene, with analysis of the seedling growth being performed following 4 days total growth. For short-term kinetic analysis of dark-grown seedlings, time-lapse imaging and growth rate analysis of hypocotyls were carried out as described previously.

[4] = test system: OSR1, ERF1, EXP5 and EXPb1 expression; experiment: Ethylene-dependent gene expression by RT-qPCR; assay type: in vivo, Arabidopsis; conditions: 0 or 1 μL L^−1 ethylene for 2 hr
Protocol: To examine the short-term molecular response, Applicant characterized ethylene-dependent gene expression for the ETR1 Asp25 mutants (FIG. 6B). Expression of OSR1 and ERF1 is induced, whereas the expression of EXP5 and EXPb1 is repressed, in response to ethylene.
RNA isolation and RT-qPCR was performed with three biological replicates and two technical replicates of each.

[5] = Saturable [14C]ethylene binding to yeast transgenically expressing ETR1; design: species or system Saccharomyces cerevisiae; conditions: 0.21 μL L^−1 [14C]ethylene; for saturable [14C]ethylene binding: with or without excess [12C]ethylene
Excerpt: Saturable ethylene binding of the ETR1 Asp25 mutants was examined by heterologous expression in yeast, with binding to [^14C]ethylene determined in the presence or absence of excess [^12C]ethylene (FIG. 2C). […] This included the ETR1^D25A mutant, consistent with previous observations, as well as for the ETR1^D25N and ETR1^D25Q mutants (FIG. 2C). Results from the ethylene binding assay are therefore consistent with the negative charge at D25 playing a significant role in mediating high-affinity ethylene binding.
[^14C]ethylene (specific activity=116 mCi/mmol) was obtained from ViTrax Radiochemicals (Placentia, CA) and trapped as the mercuric perchlorate complex as described. For ethylene binding assays in yeast, ETR1 was expressed in the yeast Saccharomyces cerevisiae (strain FY834) using the vector pYcDE-2 and a constitutive ADC1 promoter. The yeast growth media was supplemented with 40 μg L^−1 copper sulfate. Saturable ethylene binding to yeast was determined by analyzing binding of 0.3 g yeast per sample to 0.21 μL L^−1 [^14C]ethylene, in the presence or absence of excess [^12C]ethylene.

[6] = test system: Arabidopsis seedlings, etr1 etr2 ein4 background; experiment: Short-term kinetic analysis of hypocotyl growth response to ethylene; assay type: in vivo; conditions: 10 μL/L ethylene for 2 hr
Protocol: Based on the differences Applicant uncovered for the long-term ethylene growth responses for the Asp25 mutants, Applicant also analyzed their short-term hypocotyl growth and molecular responses to ethylene. To this end, Applicant performed a short-term kinetic analysis, analyzing the initial hypocotyl growth inhibition in response to 10 μL/L ethylene and the growth recovery following the removal of ethylene after two hours of treatment (FIG. 6A).
as §1

[7] = previously reported, cited from earlier work
[8] = Copper binding assay: purified ETR1 transmembrane domain titrated to BCA2-Cu(I) complex, absorbance at 562 nm; conditions: ETR1-TMD expressed and purified from E. coli; Cu(I) stabilized by BCA
Excerpt: Cu(I) was stabilized by the copper chelator BCA, and then titrated with increasing ETR1 protein concentration.
Titration curves were corrected for nonspecific binding observed with chemically and thermally denatured receptor to maximize signal to background levels.

| Molecule | effect of silver on ethylene response of etr1 etr2 ein4 triple mutant ([1]; etr1 etr2 ein4, 10 μL/L ethylene) | effect of silver on ethylene response of wild-type seedlings ([1]; wild-type, 10 μL/L ethylene) | ethylene sensitivity of plants (previous studies) [2] | rescue of growth of etr1 etr2 ein4 triple mutant in air [3] | hypocotyl growth response to ethylene [3] | molecular response to ethylene (ethylene-dependent gene expression) [4] | saturable [14C]ethylene binding [5] | short-term hypocotyl growth response to ethylene [6] | ethylene binding (previous studies) [7] | ethylene binding (previous studies) ([7]; listed as D25A) | copper binding [8] | ethylene binding relative to ETR1^wt ([5]; % of wild-type binding) [%] |
| --- | --- | --- | --- | --- | --- | --- | --- | --- | --- | --- | --- | --- |
| [Ag] [silver, reference compound] | still responsive to ethylene | blocked |  |  |  |  |  |  |  |  |  |  |
| ETR1^D25A: ETR1 with site-directed mutation of Asp25 to Ala (protein, UniProt P49333 1-738, looked up, variant D25A) Ethylene receptor 1: MEVCNCIEPQWPADELLMKYQYISAFFIAIAYFSIPLELIYFVKKSAVFPYRWVLVQFGAFIVLCGATHLINLWTFTTHSRTVALVMTTAKVLTAVVSCATALMLVHIIPDLLSVKTRELFLKNKAAELDREMGLIRTQEETGRHVRMLTHEIRSTLDRHTILKTTLVELGRTLALEECALWMPTRTGLELQLSYTLRHQHPVEYTVPIQLPVINQVFGTSRAVKISPNSPVARLRPVSGKYMLGEVVAVRVPLLHLSNFQINDWPELSTKRYALMVLMLPSDSARQWHVHELELVEVVADQVAVALSHAAILEESMRARDLLMEQNVALDLARREAETAIRARNDFLAVMNHEMRTPMHAIIALSSLLQETELTPEQRLMVETILKSSNLLATLMNDVLDLSRLEDGSLQLELGTFNLHTLFREVLNLIKPIAVVKKLPITLNLAPDLPEFVVGDEKRLMQIILNIVGNAVKFSKQGSISVTALVTKSDTRAADFFVVPTGSHFYLRVKVKDSGAGINPQDIPKIFTKFAQTQSLATRSSGGSGLGLAISKRFVNLMEGNIWIESDGLGKGCTAIFDVKLGISERSNESKQSGIPKVPAIPRHSNFTGLKVLVMDENGVSRMVTKGLLVHLGCEVTTVSSNEECLRVVSHEHKVVFMDVCMPGVENYQIALRIHEKFTKQRHQRPLLVALSGNTDKSTKEKCMSFGLDGVLLKPVSLDNIRDVLSDLLEPRVLYEGM |  |  | confers dominant ethylene-insensitivity | rescued growth | conferred ethylene insensitivity | various levels of hyposensitivity | No saturable [^14C]ethylene binding was detected | exhibit ethylene insensitivity | eliminate ethylene binding | abolishes ethylene binding | no copper binding |  |
| ETR1^D25E: ETR1 with Asp25 replaced by Glu (protein, UniProt P49333 1-738, looked up, variant D25E) Ethylene receptor 1: MEVCNCIEPQWPADELLMKYQYISEFFIAIAYFSIPLELIYFVKKSAVFPYRWVLVQFGAFIVLCGATHLINLWTFTTHSRTVALVMTTAKVLTAVVSCATALMLVHIIPDLLSVKTRELFLKNKAAELDREMGLIRTQEETGRHVRMLTHEIRSTLDRHTILKTTLVELGRTLALEECALWMPTRTGLELQLSYTLRHQHPVEYTVPIQLPVINQVFGTSRAVKISPNSPVARLRPVSGKYMLGEVVAVRVPLLHLSNFQINDWPELSTKRYALMVLMLPSDSARQWHVHELELVEVVADQVAVALSHAAILEESMRARDLLMEQNVALDLARREAETAIRARNDFLAVMNHEMRTPMHAIIALSSLLQETELTPEQRLMVETILKSSNLLATLMNDVLDLSRLEDGSLQLELGTFNLHTLFREVLNLIKPIAVVKKLPITLNLAPDLPEFVVGDEKRLMQIILNIVGNAVKFSKQGSISVTALVTKSDTRAADFFVVPTGSHFYLRVKVKDSGAGINPQDIPKIFTKFAQTQSLATRSSGGSGLGLAISKRFVNLMEGNIWIESDGLGKGCTAIFDVKLGISERSNESKQSGIPKVPAIPRHSNFTGLKVLVMDENGVSRMVTKGLLVHLGCEVTTVSSNEECLRVVSHEHKVVFMDVCMPGVENYQIALRIHEKFTKQRHQRPLLVALSGNTDKSTKEKCMSFGLDGVLLKPVSLDNIRDVLSDLLEPRVLYEGM |  |  |  | rescued growth | conferred ethylene insensitivity | various levels of hyposensitivity | substantially reduced | exhibit ethylene insensitivity |  |  | minimal residual binding |  |
| ETR1^D25Q: ETR1 with Asp25 replaced by Gln (protein, UniProt P49333 1-738, looked up, variant D25Q) Ethylene receptor 1: MEVCNCIEPQWPADELLMKYQYISQFFIAIAYFSIPLELIYFVKKSAVFPYRWVLVQFGAFIVLCGATHLINLWTFTTHSRTVALVMTTAKVLTAVVSCATALMLVHIIPDLLSVKTRELFLKNKAAELDREMGLIRTQEETGRHVRMLTHEIRSTLDRHTILKTTLVELGRTLALEECALWMPTRTGLELQLSYTLRHQHPVEYTVPIQLPVINQVFGTSRAVKISPNSPVARLRPVSGKYMLGEVVAVRVPLLHLSNFQINDWPELSTKRYALMVLMLPSDSARQWHVHELELVEVVADQVAVALSHAAILEESMRARDLLMEQNVALDLARREAETAIRARNDFLAVMNHEMRTPMHAIIALSSLLQETELTPEQRLMVETILKSSNLLATLMNDVLDLSRLEDGSLQLELGTFNLHTLFREVLNLIKPIAVVKKLPITLNLAPDLPEFVVGDEKRLMQIILNIVGNAVKFSKQGSISVTALVTKSDTRAADFFVVPTGSHFYLRVKVKDSGAGINPQDIPKIFTKFAQTQSLATRSSGGSGLGLAISKRFVNLMEGNIWIESDGLGKGCTAIFDVKLGISERSNESKQSGIPKVPAIPRHSNFTGLKVLVMDENGVSRMVTKGLLVHLGCEVTTVSSNEECLRVVSHEHKVVFMDVCMPGVENYQIALRIHEKFTKQRHQRPLLVALSGNTDKSTKEKCMSFGLDGVLLKPVSLDNIRDVLSDLLEPRVLYEGM |  |  |  | rescued growth | conferred ethylene insensitivity | various levels of hyposensitivity | No saturable [^14C]ethylene binding was detected | exhibit ethylene insensitivity |  |  | minimal residual binding |  |
| ETR1^K91A: ETR1 with Lys91 replaced by smaller nonpolar sidechain (Ala) (protein, UniProt P49333 1-738, looked up, variant K91A) Ethylene receptor 1: MEVCNCIEPQWPADELLMKYQYISDFFIAIAYFSIPLELIYFVKKSAVFPYRWVLVQFGAFIVLCGATHLINLWTFTTHSRTVALVMTTAAVLTAVVSCATALMLVHIIPDLLSVKTRELFLKNKAAELDREMGLIRTQEETGRHVRMLTHEIRSTLDRHTILKTTLVELGRTLALEECALWMPTRTGLELQLSYTLRHQHPVEYTVPIQLPVINQVFGTSRAVKISPNSPVARLRPVSGKYMLGEVVAVRVPLLHLSNFQINDWPELSTKRYALMVLMLPSDSARQWHVHELELVEVVADQVAVALSHAAILEESMRARDLLMEQNVALDLARREAETAIRARNDFLAVMNHEMRTPMHAIIALSSLLQETELTPEQRLMVETILKSSNLLATLMNDVLDLSRLEDGSLQLELGTFNLHTLFREVLNLIKPIAVVKKLPITLNLAPDLPEFVVGDEKRLMQIILNIVGNAVKFSKQGSISVTALVTKSDTRAADFFVVPTGSHFYLRVKVKDSGAGINPQDIPKIFTKFAQTQSLATRSSGGSGLGLAISKRFVNLMEGNIWIESDGLGKGCTAIFDVKLGISERSNESKQSGIPKVPAIPRHSNFTGLKVLVMDENGVSRMVTKGLLVHLGCEVTTVSSNEECLRVVSHEHKVVFMDVCMPGVENYQIALRIHEKFTKQRHQRPLLVALSGNTDKSTKEKCMSFGLDGVLLKPVSLDNIRDVLSDLLEPRVLYEGM |  |  | confer ethylene insensitivity |  | a phenotype similar to that of the ETR1^K91M mutant or complete ethylene insensitivity |  |  |  | low level of ethylene binding ability |  |  | 1 |
